Starred links: 1 amine or outer side, 2 acyl side, 3 side chain; linkers in the order of their positions; H or OH if unused. Non-standard residues stand in square brackets, D forms with d. Groups on a side chain read outwards from the residue. No end group written: not given here. *: point of attachment. C18 diacid = O=C(O)CCCCCCCCCCCCCCCCC(=O)*; γGlu = O=C(O)[C@H](CCC(=O)[*:2])N[*:1]; AEEA = NCCOCCOCC(=O)O; Aib = CC(C)(N)C(=O)O
T1: anti-target CRF1R receptor (UniProt P34998 24-415, limits assumed)
T1 sequence (looked up): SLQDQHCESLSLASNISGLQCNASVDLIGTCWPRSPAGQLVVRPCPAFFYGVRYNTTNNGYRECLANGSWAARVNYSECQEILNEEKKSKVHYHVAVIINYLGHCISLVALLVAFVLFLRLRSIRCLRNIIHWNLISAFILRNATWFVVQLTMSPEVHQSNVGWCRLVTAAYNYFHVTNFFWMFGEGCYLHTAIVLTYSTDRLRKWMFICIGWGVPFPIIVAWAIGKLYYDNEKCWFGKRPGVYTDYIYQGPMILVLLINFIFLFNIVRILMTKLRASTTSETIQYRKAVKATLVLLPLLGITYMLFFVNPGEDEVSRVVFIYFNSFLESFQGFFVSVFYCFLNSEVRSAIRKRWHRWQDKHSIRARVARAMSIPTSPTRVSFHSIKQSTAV


What was measured:
rat CRF2R α receptor = rat CRF2R α receptor (rat, UniProt P47866 20-411); test: cell-based or functional assay
[1] = target: T1, anti-target CRF1R receptor; test: cell-based or functional assay

rat CRF2R α receptor, sequence (P47866 20-411): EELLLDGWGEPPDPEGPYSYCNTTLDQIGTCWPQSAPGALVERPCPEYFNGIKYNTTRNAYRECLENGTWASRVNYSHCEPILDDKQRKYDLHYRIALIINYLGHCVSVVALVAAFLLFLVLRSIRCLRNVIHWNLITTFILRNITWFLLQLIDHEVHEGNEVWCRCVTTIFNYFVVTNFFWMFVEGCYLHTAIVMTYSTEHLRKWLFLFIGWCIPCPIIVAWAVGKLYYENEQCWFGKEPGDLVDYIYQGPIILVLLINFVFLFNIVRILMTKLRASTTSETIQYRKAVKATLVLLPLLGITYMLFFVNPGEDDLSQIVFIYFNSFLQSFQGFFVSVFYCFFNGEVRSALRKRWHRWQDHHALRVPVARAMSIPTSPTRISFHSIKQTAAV

Row | Binder | EC50 [nM], 0% HSA (cAMP, A7R5 cells) (rat CRF2R α receptor) [nM] | EC50[nM] 0% HSA (cAMP, CRF1R-overexpression CHO cells) [1] [nM] | Emax (%) (cAMP, CRF1R-overexpression CHO cells) [1]
1 | FTLSLDVPIKLK([AEEA-AEEA-γGlu-C18 diacid])QILLKQERQKKQRQKAKKNKQILERV-NH2 (N-terminus assumed; SMILES CC[C@H](C)[C@H](NC(=O)[C@H](CCC(N)=O)NC(=O)[C@H](CCCCNC(=O)COCCOCCNC(=O)COCCOCCNC(=O)CC[C@H](NC(=O)CCCCCCCCCCCCCCCCC(=O)O)C(=O)O)NC(=O)[C@H](CC(C)C)NC(=O)[C@H](CCCCN)NC(=O)[C@@H](NC(=O)[C@@H]1CCCN1C(=O)[C@@H](NC(=O)[C@H](CC(=O)O)NC(=O)[C@H](CC(C)C)NC(=O)[C@H](CO)NC(=O)[C@H](CC(C)C)NC(=O)[C@@H](NC(=O)[C@@H](N)Cc1ccccc1)[C@@H](C)O)C(C)C)[C@@H](C)CC)C(=O)N[C@@H](CC(C)C)C(=O)N[C@@H](CC(C)C)C(=O)N[C@@H](CCCCN)C(=O)N[C@@H](CCC(N)=O)C(=O)N[C@@H](CCC(=O)O)C(=O)N[C@@H](CCCNC(=N)N)C(=O)N[C@@H](CCC(N)=O)C(=O)N[C@@H](CCCCN)C(=O)N[C@@H](CCCCN)C(=O)N[C@@H](CCC(N)=O)C(=O)N[C@@H](CCCNC(=N)N)C(=O)N[C@@H](CCC(N)=O)C(=O)N[C@@H](CCCCN)C(=O)N[C@@H](C)C(=O)N[C@@H](CCCCN)C(=O)N[C@@H](CCCCN)C(=O)N[C@@H](CC(N)=O)C(=O)N[C@@H](CCCCN)C(=O)N[C@@H](CCC(N)=O)C(=O)N[C@H](C(=O)N[C@@H](CC(C)C)C(=O)N[C@@H](CCC(=O)O)C(=O)N[C@@H](CCCNC(=N)N)C(=O)N[C@H](C(N)=O)C(C)C)[C@@H](C)CC) [peptide of SEQ ID NO: 146] | 0.22 | > 1000 | 1.03
2 | Ac-IVLSLD[dV]PIGLK([AEEA-AEEA-γGlu-C18 diacid])QILLEQERQK[Aib]QREQAEKNKQILEQV-NH2 (SMILES CC[C@H](C)[C@H](NC(C)=O)C(=O)N[C@H](C(=O)N[C@@H](CC(C)C)C(=O)N[C@@H](CO)C(=O)N[C@@H](CC(C)C)C(=O)N[C@@H](CC(=O)O)C(=O)N[C@@H](C(=O)N1CCC[C@H]1C(=O)N[C@H](C(=O)NCC(=O)N[C@@H](CC(C)C)C(=O)N[C@@H](CCCCNC(=O)COCCOCCNC(=O)COCCOCCNC(=O)CC[C@H](NC(=O)CCCCCCCCCCCCCCCCC(=O)O)C(=O)O)C(=O)N[C@@H](CCC(N)=O)C(=O)N[C@H](C(=O)N[C@@H](CC(C)C)C(=O)N[C@@H](CC(C)C)C(=O)N[C@@H](CCC(=O)O)C(=O)N[C@@H](CCC(N)=O)C(=O)N[C@@H](CCC(=O)O)C(=O)N[C@@H](CCCNC(=N)N)C(=O)N[C@@H](CCC(N)=O)C(=O)N[C@@H](CCCCN)C(=O)NC(C)(C)C(=O)N[C@@H](CCC(N)=O)C(=O)N[C@@H](CCCNC(=N)N)C(=O)N[C@@H](CCC(=O)O)C(=O)N[C@@H](CCC(N)=O)C(=O)N[C@@H](C)C(=O)N[C@@H](CCC(=O)O)C(=O)N[C@@H](CCCCN)C(=O)N[C@@H](CC(N)=O)C(=O)N[C@@H](CCCCN)C(=O)N[C@@H](CCC(N)=O)C(=O)N[C@H](C(=O)N[C@@H](CC(C)C)C(=O)N[C@@H](CCC(=O)O)C(=O)N[C@@H](CCC(N)=O)C(=O)N[C@H](C(N)=O)C(C)C)[C@@H](C)CC)[C@@H](C)CC)[C@@H](C)CC)C(C)C)C(C)C) [peptide of SEQ ID NO: 164] | 12.6 | > 1000 | 25.8
3 | Ac-IVLSLD[dV]PIKLK([AEEA-AEEA-γGlu-C18 diacid])QILLEQARQK[Aib]QREQAEKNEQILEQV-NH2 (SMILES CC[C@H](C)[C@H](NC(C)=O)C(=O)N[C@H](C(=O)N[C@@H](CC(C)C)C(=O)N[C@@H](CO)C(=O)N[C@@H](CC(C)C)C(=O)N[C@@H](CC(=O)O)C(=O)N[C@@H](C(=O)N1CCC[C@H]1C(=O)N[C@H](C(=O)N[C@@H](CCCCN)C(=O)N[C@@H](CC(C)C)C(=O)N[C@@H](CCCCNC(=O)COCCOCCNC(=O)COCCOCCNC(=O)CC[C@H](NC(=O)CCCCCCCCCCCCCCCCC(=O)O)C(=O)O)C(=O)N[C@@H](CCC(N)=O)C(=O)N[C@H](C(=O)N[C@@H](CC(C)C)C(=O)N[C@@H](CC(C)C)C(=O)N[C@@H](CCC(=O)O)C(=O)N[C@@H](CCC(N)=O)C(=O)N[C@@H](C)C(=O)N[C@@H](CCCNC(=N)N)C(=O)N[C@@H](CCC(N)=O)C(=O)N[C@@H](CCCCN)C(=O)NC(C)(C)C(=O)N[C@@H](CCC(N)=O)C(=O)N[C@@H](CCCNC(=N)N)C(=O)N[C@@H](CCC(=O)O)C(=O)N[C@@H](CCC(N)=O)C(=O)N[C@@H](C)C(=O)N[C@@H](CCC(=O)O)C(=O)N[C@@H](CCCCN)C(=O)N[C@@H](CC(N)=O)C(=O)N[C@@H](CCC(=O)O)C(=O)N[C@@H](CCC(N)=O)C(=O)N[C@H](C(=O)N[C@@H](CC(C)C)C(=O)N[C@@H](CCC(=O)O)C(=O)N[C@@H](CCC(N)=O)C(=O)N[C@H](C(N)=O)C(C)C)[C@@H](C)CC)[C@@H](C)CC)[C@@H](C)CC)C(C)C)C(C)C) [peptide of SEQ ID NO: 165] | 2.41 | > 1000 | 26.9
4 | Ac-IVLSLD[dV]PIKLK([AEEA-AEEA-γGlu-C18 diacid])QILLEQERQK[Aib]QREQAEKNEQILEQV-NH2 (SMILES CC[C@H](C)[C@H](NC(C)=O)C(=O)N[C@H](C(=O)N[C@@H](CC(C)C)C(=O)N[C@@H](CO)C(=O)N[C@@H](CC(C)C)C(=O)N[C@@H](CC(=O)O)C(=O)N[C@@H](C(=O)N1CCC[C@H]1C(=O)N[C@H](C(=O)N[C@@H](CCCCN)C(=O)N[C@@H](CC(C)C)C(=O)N[C@@H](CCCCNC(=O)COCCOCCNC(=O)COCCOCCNC(=O)CC[C@H](NC(=O)CCCCCCCCCCCCCCCCC(=O)O)C(=O)O)C(=O)N[C@@H](CCC(N)=O)C(=O)N[C@H](C(=O)N[C@@H](CC(C)C)C(=O)N[C@@H](CC(C)C)C(=O)N[C@@H](CCC(=O)O)C(=O)N[C@@H](CCC(N)=O)C(=O)N[C@@H](CCC(=O)O)C(=O)N[C@@H](CCCNC(=N)N)C(=O)N[C@@H](CCC(N)=O)C(=O)N[C@@H](CCCCN)C(=O)NC(C)(C)C(=O)N[C@@H](CCC(N)=O)C(=O)N[C@@H](CCCNC(=N)N)C(=O)N[C@@H](CCC(=O)O)C(=O)N[C@@H](CCC(N)=O)C(=O)N[C@@H](C)C(=O)N[C@@H](CCC(=O)O)C(=O)N[C@@H](CCCCN)C(=O)N[C@@H](CC(N)=O)C(=O)N[C@@H](CCC(=O)O)C(=O)N[C@@H](CCC(N)=O)C(=O)N[C@H](C(=O)N[C@@H](CC(C)C)C(=O)N[C@@H](CCC(=O)O)C(=O)N[C@@H](CCC(N)=O)C(=O)N[C@H](C(N)=O)C(C)C)[C@@H](C)CC)[C@@H](C)CC)[C@@H](C)CC)C(C)C)C(C)C) [peptide of SEQ ID NO: 166] | 9.99 | > 1000 | 5.94
5 | Ac-IVLSLD[dV]PIGLK([AEEA-AEEA-γGlu-C18 diacid])QILLEQERQK[Aib]QREQAEKNEQILEQV-NH2 (SMILES CC[C@H](C)[C@H](NC(C)=O)C(=O)N[C@H](C(=O)N[C@@H](CC(C)C)C(=O)N[C@@H](CO)C(=O)N[C@@H](CC(C)C)C(=O)N[C@@H](CC(=O)O)C(=O)N[C@@H](C(=O)N1CCC[C@H]1C(=O)N[C@H](C(=O)NCC(=O)N[C@@H](CC(C)C)C(=O)N[C@@H](CCCCNC(=O)COCCOCCNC(=O)COCCOCCNC(=O)CC[C@H](NC(=O)CCCCCCCCCCCCCCCCC(=O)O)C(=O)O)C(=O)N[C@@H](CCC(N)=O)C(=O)N[C@H](C(=O)N[C@@H](CC(C)C)C(=O)N[C@@H](CC(C)C)C(=O)N[C@@H](CCC(=O)O)C(=O)N[C@@H](CCC(N)=O)C(=O)N[C@@H](CCC(=O)O)C(=O)N[C@@H](CCCNC(=N)N)C(=O)N[C@@H](CCC(N)=O)C(=O)N[C@@H](CCCCN)C(=O)NC(C)(C)C(=O)N[C@@H](CCC(N)=O)C(=O)N[C@@H](CCCNC(=N)N)C(=O)N[C@@H](CCC(=O)O)C(=O)N[C@@H](CCC(N)=O)C(=O)N[C@@H](C)C(=O)N[C@@H](CCC(=O)O)C(=O)N[C@@H](CCCCN)C(=O)N[C@@H](CC(N)=O)C(=O)N[C@@H](CCC(=O)O)C(=O)N[C@@H](CCC(N)=O)C(=O)N[C@H](C(=O)N[C@@H](CC(C)C)C(=O)N[C@@H](CCC(=O)O)C(=O)N[C@@H](CCC(N)=O)C(=O)N[C@H](C(N)=O)C(C)C)[C@@H](C)CC)[C@@H](C)CC)[C@@H](C)CC)C(C)C)C(C)C) [peptide of SEQ ID NO: 167] | 76.9 | > 1000 | -0.46

From patent publication US12679878B2, “CRF2 receptor agonists and their use in therapy” (SANOFI, priority 2020, dated 2026)
